Measurements published in PMC9746958.

Target: leptin receptor (OBR-2K), fused to luciferase (OBR-2K Rluc) or to YFP (OBR-2K YFP) (UniProt P48357)
Assay: FRET or BRET; HEK293T cells co-transfected with OBR-2K Rluc (donor) and OBR-2K YFP (acceptor); pre-treated with homocysteine (1-10 mM) for 4 h, then leptin (10 nM) for 30 min; coelenterazine h 20 uM; result in mBRET units

- fold increase in BRET signal upon leptin stimulation: 3 fold
Substance: leptin receptor (OBR-2K), fused to luciferase (OBR-2K Rluc) or to YFP (OBR-2K YFP) (from UniProt P48357 22-1165)
